From paper PMC7102968, “The complex formed between a synthetic RNA aptamer and the transcription repressor TetR is a structural and functional twin of the operator DNA–TetR regulator complex”

Legend:
TetR(BD') [1] = molecular target: T1, TetR(BD') (UniProt P04483 1-187+P0ACT4:188-208, C68S;C88N;C121T;C144S;internal_change); assay: EMSA; 10 mM Mg2+, 25 ug/ml yeast tRNA; ITC: 20 mM potassium phosphate pH 7.4, 50 mM NaCl, 25 C; EMSA: 50 mM Tris-HCl pH 8.0, 10 mM MgCl2, 25 mM NaCl, 25 ug/ml yeast tRNA, room temperature; SEC buffer not given (preparative complex: 20 mM Tris-HCl pH 8.0, 150 mM NaCl, 5 mM MgCl2); settings: protein: recombinant, chain copies: 2, label: 5'-32P in EMSA, none in ITC, crystal, hairpin, L-shaped, 43 nt, stems P1 and P2
TetR-Q38A [2] = molecular target: T2, TetR-Q38A (UniProt P04483 1-187+P0ACT4:188-208, Q38A;C68S;C88N;C121T;C144S;internal_change); assay: EMSA; 10 mM Mg2+, 25 ug/ml yeast tRNA; exact Kd not determinable, weak binding detected; ITC: 20 mM potassium phosphate pH 7.4, 50 mM NaCl, 25 C; EMSA: 50 mM Tris-HCl pH 8.0, 10 mM MgCl2, 25 mM NaCl, 25 ug/ml yeast tRNA, room temperature; SEC buffer not given (preparative complex: 20 mM Tris-HCl pH 8.0, 150 mM NaCl, 5 mM MgCl2); settings: protein: recombinant, chain copies: 2, label: 5'-32P in EMSA, none in ITC, crystal, hairpin, L-shaped, 43 nt, stems P1 and P2
TetR-Q38A [3] = molecular target: T2, TetR-Q38A; assay: ITC; n=1.10; ITC: 20 mM potassium phosphate pH 7.4, 50 mM NaCl, 25 C; EMSA: 50 mM Tris-HCl pH 8.0, 10 mM MgCl2, 25 mM NaCl, 25 ug/ml yeast tRNA, room temperature; SEC buffer not given (preparative complex: 20 mM Tris-HCl pH 8.0, 150 mM NaCl, 5 mM MgCl2); settings: protein: recombinant, chain copies: 2, label: 5'-32P in EMSA, none in ITC, crystal, hairpin, L-shaped, 43 nt, stems P1 and P2
TetR(BD') [4] = molecular target: T1, TetR(BD'); assay: ITC; n=0.96 (TetR dimer per aptamer); ITC: 20 mM potassium phosphate pH 7.4, 50 mM NaCl, 25 C; EMSA: 50 mM Tris-HCl pH 8.0, 10 mM MgCl2, 25 mM NaCl, 25 ug/ml yeast tRNA, room temperature; SEC buffer not given (preparative complex: 20 mM Tris-HCl pH 8.0, 150 mM NaCl, 5 mM MgCl2); settings: protein: recombinant, chain copies: 2, label: 5'-32P in EMSA, none in ITC, crystal, hairpin, L-shaped, 43 nt, stems P1 and P2
TetR-R28A [5] = molecular target: T3, TetR-R28A (UniProt P04483 1-187+P0ACT4:188-208, R28A;C68S;C88N;C121T;C144S;internal_change); assay: EMSA; 10 mM Mg2+, up to 1000 nM TetR; ITC: 20 mM potassium phosphate pH 7.4, 50 mM NaCl, 25 C; EMSA: 50 mM Tris-HCl pH 8.0, 10 mM MgCl2, 25 mM NaCl, 25 ug/ml yeast tRNA, room temperature; SEC buffer not given (preparative complex: 20 mM Tris-HCl pH 8.0, 150 mM NaCl, 5 mM MgCl2); settings: protein: recombinant, chain copies: 2, label: 5'-32P in EMSA, none in ITC, crystal, hairpin, L-shaped, 43 nt, stems P1 and P2
TetR-Q38A [6] = molecular target: T2, TetR-Q38A; assay: SEC; ITC: 20 mM potassium phosphate pH 7.4, 50 mM NaCl, 25 C; EMSA: 50 mM Tris-HCl pH 8.0, 10 mM MgCl2, 25 mM NaCl, 25 ug/ml yeast tRNA, room temperature; SEC buffer not given (preparative complex: 20 mM Tris-HCl pH 8.0, 150 mM NaCl, 5 mM MgCl2); settings: protein: recombinant; chain copies: 2; blunt
TetR-Y42A = TetR-Y42A (UniProt P04483 1-187+P0ACT4:188-208, Y42A;C68S;C88N;C121T;C144S;internal_change); assay: as above; settings: protein: recombinant; chain copies: 2; blunt
TetR-R28A [7] = molecular target: T3, TetR-R28A; assay: as above; settings: protein: recombinant; chain copies: 2; blunt
TetR(BD') [8] = molecular target: T1, TetR(BD'); assay: ITC; n=1.17; ITC: 20 mM potassium phosphate pH 7.4, 50 mM NaCl, 25 C; EMSA: 50 mM Tris-HCl pH 8.0, 10 mM MgCl2, 25 mM NaCl, 25 ug/ml yeast tRNA, room temperature; SEC buffer not given (preparative complex: 20 mM Tris-HCl pH 8.0, 150 mM NaCl, 5 mM MgCl2); settings: protein: recombinant; chain copies: 2; blunt
TetR(BD') [9] = molecular target: T1, TetR(BD'); assay: X-ray crystallography; 2.9 A; ITC: 20 mM potassium phosphate pH 7.4, 50 mM NaCl, 25 C; EMSA: 50 mM Tris-HCl pH 8.0, 10 mM MgCl2, 25 mM NaCl, 25 ug/ml yeast tRNA, room temperature; SEC buffer not given (preparative complex: 20 mM Tris-HCl pH 8.0, 150 mM NaCl, 5 mM MgCl2); settings: protein: recombinant; chain copies: 2; hairpin, L-shaped, 39 nt, UUCG loop

With GGCCGGAGAAUGUUAUGGCGCGAAAGCGCAGAGAAAACCGGUC (structured_RNA) [TetR-binding aptamer K1] as the binder, how does the Kd (TetR(BD') [1]) read?
Its Kd is 0.08 µM.

What about the Kd (TetR-Q38A [2]) of the same binder?
The Kd was > 0.5 µM.

What about the Kd (TetR-Q38A [3]) of the same binder?
The Kd was 0.0262 µM.

What about the Kd (TetR(BD') [4]) of the same binder?
Its Kd is 0.0056 µM.

Does GGCCGGAGAAUGUUAUGGCGCGAAAGCGCAGAGAAAACCGGUC (structured_RNA) [TetR-binding aptamer K1] bind (TetR-R28A [5])?
Result: no binding

B1: tetO operator 25 bp (dsDNA)
DNA 1: CGCATTCTATCATTGATAGGATGCG
DNA 2: CGCATCCTATCAATGATAGAATGCG
Does B1 bind (TetR-Q38A [6])?
Result: binds

Does B1 bind (TetR-Y42A)?
Result: no binding

Does B1 bind (TetR-R28A [7])?
Result: no binding

And the Kd (TetR(BD') [8])?
Its Kd is 0.0511 µM.

Does GGCGGAGAAUGUUAUGGCCUUCGGGCAGAGAAAACCGUC (structured_RNA) [TetR-binding aptamer K2] bind (TetR(BD') [9])?
Result: binds
